Target: ALPP/ALPPL2 on ALPP/ALPPL2 positive cancer cells (MKN1, NCI-H1651, NCI-N87, Caov-3, HPAC)
Assay: cell-based or functional assay

Binder | % viability remaining at 96 h, MKN1 cells | % viability remaining at 96 h, NCI-H1651 cells | % viability remaining at 96 h, NCI-N87 cells | IC50 at 96 h, cell-killing of MKN1 cells | IC50 at 96 h, cell-killing of NCI-H1651 cells | IC50 at 96 h, cell-killing of NCI-N87 cells
D10 A06-hFc (S239/442C T366Y/Y407T), [G4S]3 linker, MC-vc-PAB-MMAE conjugate, #633 (Fc fusion, DAR 4, here or on the partner: MC-vc-PAB-MMAE on Cys of S239C and S442C (EU numbering)) chain 1: QVQLVESGGGLVQPGGSLRLSCAASGSIFSVNTMGWYRQAPGKQRDLVAVATSGGTIHYADSVKGRFTISRDNAKNTVYLQMNSLKPEDTAVYYCNLVVPYGMIAGDHDYWGQGTKVTVSSGGGGSGGGGSGGGGSEPKSSDKTHTCPPCPAPELLGGPCVFLFPPKPKDTLMISRTPEVTCVVVDVSHEDPEVKFNWYVDGVEVHNAKTKPREEQYNSTYRVVSVLTVLHQDWLNGKEYKCKVSNKALPAPIEKTISKAKGQPREPQVYTLPPSRDELTKNQVSLYCLVKGFYPSDIAVEWESNGQPENNYKTTPPVLDSDGSFFLYSKLTVDKSRWQQGNVFSCSVMHEALHNHYTQKSLCLSPGK chain 2: QVHLVESGGGLVQAGGSLRLSCAASGRTFLSMGWFRQAPGKEREFVAAISWTGGSTGYADSVKGRFTISRESDKETMYLQMNSLKPEDTAVYYCAARGDVYYGGDDATRYKYWGQGTQVTVSSGGGGSGGGGSGGGGSEPKSSDKTHTCPPCPAPELLGGPCVFLFPPKPKDTLMISRTPEVTCVVVDVSHEDPEVKFNWYVDGVEVHNAKTKPREEQYNSTYRVVSVLTVLHQDWLNGKEYKCKVSNKALPAPIEKTISKAKGQPREPQVYTLPPSRDELTKNQVSLTCLVKGFYPSDIAVEWESNGQPENNYKTTPPVLDSDGSFFLTSKLTVDKSRWQQGNVFSCSVMHEALHNHYTQKSLCLSPGK | 27.9% | 25.4% | 27.3% | 1.4 nM | 5.4 nM | 4.9 nM
D10 E10-hFc (S239/442C T366Y/Y407T), [G4S]3 linker, MC-vc-PAB-MMAE conjugate, #636 (Fc fusion, DAR 4, here or on the partner: MC-vc-PAB-MMAE on Cys of S239C and S442C (EU numbering)) chain 1: QVQLVESGGGLVQPGGSLRLSCAASGSIFSVNTMGWYRQAPGKQRDLVAVATSGGTIHYADSVKGRFTISRDNAKNTVYLQMNSLKPEDTAVYYCNLVVPYGMIAGDHDYWGQGTKVTVSSGGGGSGGGGSGGGGSEPKSSDKTHTCPPCPAPELLGGPCVFLFPPKPKDTLMISRTPEVTCVVVDVSHEDPEVKFNWYVDGVEVHNAKTKPREEQYNSTYRVVSVLTVLHQDWLNGKEYKCKVSNKALPAPIEKTISKAKGQPREPQVYTLPPSRDELTKNQVSLYCLVKGFYPSDIAVEWESNGQPENNYKTTPPVLDSDGSFFLYSKLTVDKSRWQQGNVFSCSVMHEALHNHYTQKSLCLSPGK chain 2: QVQLVESGGGLVQAGGSLRLSCAVSGRALSDYNIGWFRQAPGKEREFVARKTWDGSSTRYDDSVKGRFTVSIEDAKNTAYLQMSSLKTEDTAVYYCAAGRYSRARGWEYDYWGQGTQVTVSSGGGGSGGGGSGGGGSEPKSSDKTHTCPPCPAPELLGGPCVFLFPPKPKDTLMISRTPEVTCVVVDVSHEDPEVKFNWYVDGVEVHNAKTKPREEQYNSTYRVVSVLTVLHQDWLNGKEYKCKVSNKALPAPIEKTISKAKGQPREPQVYTLPPSRDELTKNQVSLTCLVKGFYPSDIAVEWESNGQPENNYKTTPPVLDSDGSFFLTSKLTVDKSRWQQGNVFSCSVMHEALHNHYTQKSLCLSPGK | 30% | 28.9% | 26.2% | 1.9 nM | 0.9 nM | 2.1 nM
A06 E06-hFc (S239/442C T366Y/Y407T), [G4S]3 linker, MC-vc-PAB-MMAE conjugate, #639 (Fc fusion, DAR 4, here or on the partner: MC-vc-PAB-MMAE on Cys of S239C and S442C (EU numbering)) chain 1: QVHLVESGGGLVQAGGSLRLSCAASGRTFLSMGWFRQAPGKEREFVAAISWTGGSTGYADSVKGRFTISRESDKETMYLQMNSLKPEDTAVYYCAARGDVYYGGDDATRYKYWGQGTQVTVSSGGGGSGGGGSGGGGSEPKSSDKTHTCPPCPAPELLGGPCVFLFPPKPKDTLMISRTPEVTCVVVDVSHEDPEVKFNWYVDGVEVHNAKTKPREEQYNSTYRVVSVLTVLHQDWLNGKEYKCKVSNKALPAPIEKTISKAKGQPREPQVYTLPPSRDELTKNQVSLYCLVKGFYPSDIAVEWESNGQPENNYKTTPPVLDSDGSFFLYSKLTVDKSRWQQGNVFSCSVMHEALHNHYTQKSLCLSPGK chain 2: QVHLVESGGGLVQAGGSLRLSCAASRRSFSEYAMGWFRQAPGKEREFVAAIGWSGVIEYADSVKGRFTISRDNAKDTVYLQMNSLKPEDTAVYYCAAGLGIRVVSQTPAYWGQGTQVTVSSGGGGSGGGGSGGGGSEPKSSDKTHTCPPCPAPELLGGPCVFLFPPKPKDTLMISRTPEVTCVVVDVSHEDPEVKFNWYVDGVEVHNAKTKPREEQYNSTYRVVSVLTVLHQDWLNGKEYKCKVSNKALPAPIEKTISKAKGQPREPQVYTLPPSRDELTKNQVSLTCLVKGFYPSDIAVEWESNGQPENNYKTTPPVLDSDGSFFLTSKLTVDKSRWQQGNVFSCSVMHEALHNHYTQKSLCLSPGK | 30.6% | 28% | 27.8% | 2.3 nM | 0.9 nM | 12.9 nM
A06 E10-hFc (S239/442C T366Y/Y407T), [G4S]3 linker, MC-vc-PAB-MMAE conjugate, #664 (Fc fusion, DAR 4, here or on the partner: MC-vc-PAB-MMAE on Cys of S239C and S442C (EU numbering)) chain 1: QVHLVESGGGLVQAGGSLRLSCAASGRTFLSMGWFRQAPGKEREFVAAISWTGGSTGYADSVKGRFTISRESDKETMYLQMNSLKPEDTAVYYCAARGDVYYGGDDATRYKYWGQGTQVTVSSGGGGSGGGGSGGGGSEPKSSDKTHTCPPCPAPELLGGPCVFLFPPKPKDTLMISRTPEVTCVVVDVSHEDPEVKFNWYVDGVEVHNAKTKPREEQYNSTYRVVSVLTVLHQDWLNGKEYKCKVSNKALPAPIEKTISKAKGQPREPQVYTLPPSRDELTKNQVSLYCLVKGFYPSDIAVEWESNGQPENNYKTTPPVLDSDGSFFLYSKLTVDKSRWQQGNVFSCSVMHEALHNHYTQKSLCLSPGK chain 2: QVQLVESGGGLVQAGGSLRLSCAVSGRALSDYNIGWFRQAPGKEREFVARKTWDGSSTRYDDSVKGRFTVSIEDAKNTAYLQMSSLKTEDTAVYYCAAGRYSRARGWEYDYWGQGTQVTVSSGGGGSGGGGSGGGGSEPKSSDKTHTCPPCPAPELLGGPCVFLFPPKPKDTLMISRTPEVTCVVVDVSHEDPEVKFNWYVDGVEVHNAKTKPREEQYNSTYRVVSVLTVLHQDWLNGKEYKCKVSNKALPAPIEKTISKAKGQPREPQVYTLPPSRDELTKNQVSLTCLVKGFYPSDIAVEWESNGQPENNYKTTPPVLDSDGSFFLTSKLTVDKSRWQQGNVFSCSVMHEALHNHYTQKSLCLSPGK | 29.7% | 27.2% | 28.7% | 0.9 nM | 0.6 nM | 4.7 nM
D10 F05-hFc (S239/442C T366Y/Y407T), [G4S]3 linker, MC-vc-PAB-MMAE conjugate, #637 (Fc fusion, DAR 4, here or on the partner: MC-vc-PAB-MMAE on Cys of S239C and S442C (EU numbering)) chain 1: QVQLVESGGGLVQPGGSLRLSCAASGSIFSVNTMGWYRQAPGKQRDLVAVATSGGTIHYADSVKGRFTISRDNAKNTVYLQMNSLKPEDTAVYYCNLVVPYGMIAGDHDYWGQGTKVTVSSGGGGSGGGGSGGGGSEPKSSDKTHTCPPCPAPELLGGPCVFLFPPKPKDTLMISRTPEVTCVVVDVSHEDPEVKFNWYVDGVEVHNAKTKPREEQYNSTYRVVSVLTVLHQDWLNGKEYKCKVSNKALPAPIEKTISKAKGQPREPQVYTLPPSRDELTKNQVSLYCLVKGFYPSDIAVEWESNGQPENNYKTTPPVLDSDGSFFLYSKLTVDKSRWQQGNVFSCSVMHEALHNHYTQKSLCLSPGK chain 2: QVQLVESGGGLVQAGGSLRLSCAASGRAFGDYNIGWFRQAPGKEREFVARRTWDGSSTRYDDSVKGRFTVSIDNAKNTAYLQMNSLKTEDTAVYYCAAGRYSRVRGWEYDYWGQGTQVTVSSGGGGSGGGGSGGGGSEPKSSDKTHTCPPCPAPELLGGPCVFLFPPKPKDTLMISRTPEVTCVVVDVSHEDPEVKFNWYVDGVEVHNAKTKPREEQYNSTYRVVSVLTVLHQDWLNGKEYKCKVSNKALPAPIEKTISKAKGQPREPQVYTLPPSRDELTKNQVSLTCLVKGFYPSDIAVEWESNGQPENNYKTTPPVLDSDGSFFLTSKLTVDKSRWQQGNVFSCSVMHEALHNHYTQKSLCLSPGK | 28.1% | 28% | 28.9% | 1.3 nM | 1.2 nM | 5.1 nM
A06 F05-hFc (S239/442C T366Y/Y407T), [G4S]3 linker, MC-vc-PAB-MMAE conjugate, #665 (Fc fusion, DAR 4, here or on the partner: MC-vc-PAB-MMAE on Cys of S239C and S442C (EU numbering)) chain 1: QVHLVESGGGLVQAGGSLRLSCAASGRTFLSMGWFRQAPGKEREFVAAISWTGGSTGYADSVKGRFTISRESDKETMYLQMNSLKPEDTAVYYCAARGDVYYGGDDATRYKYWGQGTQVTVSSGGGGSGGGGSGGGGSEPKSSDKTHTCPPCPAPELLGGPCVFLFPPKPKDTLMISRTPEVTCVVVDVSHEDPEVKFNWYVDGVEVHNAKTKPREEQYNSTYRVVSVLTVLHQDWLNGKEYKCKVSNKALPAPIEKTISKAKGQPREPQVYTLPPSRDELTKNQVSLYCLVKGFYPSDIAVEWESNGQPENNYKTTPPVLDSDGSFFLYSKLTVDKSRWQQGNVFSCSVMHEALHNHYTQKSLCLSPGK chain 2: QVQLVESGGGLVQAGGSLRLSCAASGRAFGDYNIGWFRQAPGKEREFVARRTWDGSSTRYDDSVKGRFTVSIDNAKNTAYLQMNSLKTEDTAVYYCAAGRYSRVRGWEYDYWGQGTQVTVSSGGGGSGGGGSGGGGSEPKSSDKTHTCPPCPAPELLGGPCVFLFPPKPKDTLMISRTPEVTCVVVDVSHEDPEVKFNWYVDGVEVHNAKTKPREEQYNSTYRVVSVLTVLHQDWLNGKEYKCKVSNKALPAPIEKTISKAKGQPREPQVYTLPPSRDELTKNQVSLTCLVKGFYPSDIAVEWESNGQPENNYKTTPPVLDSDGSFFLTSKLTVDKSRWQQGNVFSCSVMHEALHNHYTQKSLCLSPGK | 31.6% | 25% | 27% | 0.7 nM | 0.4 nM | 5.8 nM
D10 E06-hFc (S239/442C T366Y/Y407T), [G4S]3 linker, MC-vc-PAB-MMAE conjugate, #634 (Fc fusion, DAR 4, here or on the partner: MC-vc-PAB-MMAE on Cys of S239C and S442C (EU numbering)) chain 1: QVQLVESGGGLVQPGGSLRLSCAASGSIFSVNTMGWYRQAPGKQRDLVAVATSGGTIHYADSVKGRFTISRDNAKNTVYLQMNSLKPEDTAVYYCNLVVPYGMIAGDHDYWGQGTKVTVSSGGGGSGGGGSGGGGSEPKSSDKTHTCPPCPAPELLGGPCVFLFPPKPKDTLMISRTPEVTCVVVDVSHEDPEVKFNWYVDGVEVHNAKTKPREEQYNSTYRVVSVLTVLHQDWLNGKEYKCKVSNKALPAPIEKTISKAKGQPREPQVYTLPPSRDELTKNQVSLYCLVKGFYPSDIAVEWESNGQPENNYKTTPPVLDSDGSFFLYSKLTVDKSRWQQGNVFSCSVMHEALHNHYTQKSLCLSPGK chain 2: QVHLVESGGGLVQAGGSLRLSCAASRRSFSEYAMGWFRQAPGKEREFVAAIGWSGVIEYADSVKGRFTISRDNAKDTVYLQMNSLKPEDTAVYYCAAGLGIRVVSQTPAYWGQGTQVTVSSGGGGSGGGGSGGGGSEPKSSDKTHTCPPCPAPELLGGPCVFLFPPKPKDTLMISRTPEVTCVVVDVSHEDPEVKFNWYVDGVEVHNAKTKPREEQYNSTYRVVSVLTVLHQDWLNGKEYKCKVSNKALPAPIEKTISKAKGQPREPQVYTLPPSRDELTKNQVSLTCLVKGFYPSDIAVEWESNGQPENNYKTTPPVLDSDGSFFLTSKLTVDKSRWQQGNVFSCSVMHEALHNHYTQKSLCLSPGK | 31.1% | 28.5% | 27.6% | 2.6 nM | 1.1 nM | 2.4 nM

Reference: patent US20260216242A1, “ALPP-SPECIFIC VARIANT ANTIGEN BINDING MOLECULES” (ALMAC DISCOVERY LIMITED, priority 2022, published 2026)
